# Test results: paper PMC10531517, “Rational Design of Novel Peptidomimetics against Influenza A Virus: Biological and Computational Studies” (International Journal of Molecular Sciences, 2023)
# *1 amine or outer side, *2 acyl side, *3 side chain or, on linkers, in order; H or OH if unused. Where a SMILES comes first, the peptide text is derived from it. [ ]: non-standard residue; d: D form. N(2-mercaptoethyl)Gly = O=C(CN(CCS[*:3])[*:1])[*:2]; NMeS = CN[C@@H](CO)C(=O)O
# Experiments:
# [1] = target: Full-length recombinant HA (His-Tag), H1N1 hemagglutinin, GenScript Cat No. Z03181 (influenza A virus H1N1); assay: MST; labelled His-HA (NT647-HA) held constant, compound in 16 1:1 serial dilutions from 50 µM, PBS, 10 min at rt, standard-treated capillaries, Monolith NT.115pico, 10% LED power, high MST power, triplicate
# [2] = target: Full-length recombinant HA (His-Tag), H1N1 hemagglutinin, GenScript Cat No. Z03181 (influenza A virus H1N1); assay: SPR
# [3] = target: T1, HA (H1N1 hemagglutinin, Cat No.: Z03181, GenScript) (Influenza A virus, UniProt C3W5S1); assay: biochemical; format: binding
# T1 construct: Full-length recombinant HA (His-Tag) was immobilized; purchased GenScript Z03181-100
# T1 sequence (C3W5S1 entry or part of it, added parts left off): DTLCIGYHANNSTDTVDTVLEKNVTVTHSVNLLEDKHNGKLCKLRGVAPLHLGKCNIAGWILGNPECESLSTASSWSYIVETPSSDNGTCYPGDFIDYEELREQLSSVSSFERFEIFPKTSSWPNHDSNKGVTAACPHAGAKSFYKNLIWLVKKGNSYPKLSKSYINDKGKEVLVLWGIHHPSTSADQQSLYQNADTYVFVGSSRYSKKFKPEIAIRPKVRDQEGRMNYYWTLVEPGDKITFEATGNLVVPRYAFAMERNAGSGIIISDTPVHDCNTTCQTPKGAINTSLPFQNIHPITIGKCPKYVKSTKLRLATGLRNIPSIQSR
# A/Parma/24/09 H1N1 virus [4] = test system: A/Parma/24/09 H1N1 virus; design: method as in Scala et al. (2017) [23]; settings: read-out: IC50 (peptide concentration that inhibits virus-induced hemagglutination by 50%), reference peptides, ref Scala et al. (2017) [23]; cited from earlier work
# A/Parma/24/09 H1N1 virus [5] = test system: A/Parma/24/09 H1N1 virus; design: method as in Scala et al. (2017) [23]; settings: read-out: EC50 (concentration that reduced cytopathic effect by 50%); reference peptides; ref Scala et al. (2017) [23]; cited from earlier work
Compound,Kd [1] [nM],Kd [2] [nM],also measured
SNLDC (peptide),701,3810,–
S(N-Me)LDC (peptide),32.5,580,–
SKHNhS (peptide),49.1,430,–
S(N-Me)KHS (peptide),7930,8330,–
(N-Me)SLDC (peptide),24800,7600,–
SLNDC (peptide),1340,–,–
(N-Me)SKHS (peptide),336,4190,–
"CC(=O)N[C@@H](CO)C(=O)N[C@@H](CCCCN)C(=O)N(CC(=O)N[C@@H](CO)C(N)=O)Cc1c[nH]cn1 [Peptide 17, SKNHS]",–,–,Kd [3]: 3070 ± 790 nM
SKHS [Peptide 2],–,–,IC50 (A/Parma/24/09 H1N1 virus [4]): 1.5 ± 0.7 nM
SKH(N-Me)S (peptide),3040,–,–
SK(N-Me)HS (peptide),52.8,1260,–
NhSLDC (peptide),67.2,6550,–
SLD(N-Me)C (peptide),142,3800,–
"CC(=O)N[C@@H](CO)C(=O)N[C@@H](CCCCN)C(=O)N[C@@H](Cc1c[nH]cn1)C(=O)N(C)[C@@H](CO)C(N)=O [Peptide 10, SKH(N-Me)S] (Ac-SKH[NMeS]-NH2)",–,–,Kd [3]: 3040 ± 850 nM
"CC(=O)N[C@@H](CO)C(=O)N[C@@H](CC(C)C)C(=O)N[C@@H](CC(=O)O)C(=O)N(CCS)CC(N)=O [Peptide 14, SLDNhC] (Ac-SLD[N(2-mercaptoethyl)Gly]-NH2)",–,–,Kd [3]: 45.9 ± 10 nM
SLDNhC (peptide),45.9,–,–
NhSKHS (peptide),7400,2090,–
SNKHS (peptide),39.1,1700,–
SLDC [Peptide 1],–,–,EC50 (A/Parma/24/09 H1N1 virus [5]): 0.0046 nM; IC50 (A/Parma/24/09 H1N1 virus [4]): 6 ± 3 nM
SKNHS (peptide),3070,–,–
SL(N-Me)DC (peptide),8800,–,–
